Laboratory results: patent US20080292615

How the values were obtained:
Desmoglein, Q02413 = molecular target: T1, Desmoglein, Q02413
T1 chain: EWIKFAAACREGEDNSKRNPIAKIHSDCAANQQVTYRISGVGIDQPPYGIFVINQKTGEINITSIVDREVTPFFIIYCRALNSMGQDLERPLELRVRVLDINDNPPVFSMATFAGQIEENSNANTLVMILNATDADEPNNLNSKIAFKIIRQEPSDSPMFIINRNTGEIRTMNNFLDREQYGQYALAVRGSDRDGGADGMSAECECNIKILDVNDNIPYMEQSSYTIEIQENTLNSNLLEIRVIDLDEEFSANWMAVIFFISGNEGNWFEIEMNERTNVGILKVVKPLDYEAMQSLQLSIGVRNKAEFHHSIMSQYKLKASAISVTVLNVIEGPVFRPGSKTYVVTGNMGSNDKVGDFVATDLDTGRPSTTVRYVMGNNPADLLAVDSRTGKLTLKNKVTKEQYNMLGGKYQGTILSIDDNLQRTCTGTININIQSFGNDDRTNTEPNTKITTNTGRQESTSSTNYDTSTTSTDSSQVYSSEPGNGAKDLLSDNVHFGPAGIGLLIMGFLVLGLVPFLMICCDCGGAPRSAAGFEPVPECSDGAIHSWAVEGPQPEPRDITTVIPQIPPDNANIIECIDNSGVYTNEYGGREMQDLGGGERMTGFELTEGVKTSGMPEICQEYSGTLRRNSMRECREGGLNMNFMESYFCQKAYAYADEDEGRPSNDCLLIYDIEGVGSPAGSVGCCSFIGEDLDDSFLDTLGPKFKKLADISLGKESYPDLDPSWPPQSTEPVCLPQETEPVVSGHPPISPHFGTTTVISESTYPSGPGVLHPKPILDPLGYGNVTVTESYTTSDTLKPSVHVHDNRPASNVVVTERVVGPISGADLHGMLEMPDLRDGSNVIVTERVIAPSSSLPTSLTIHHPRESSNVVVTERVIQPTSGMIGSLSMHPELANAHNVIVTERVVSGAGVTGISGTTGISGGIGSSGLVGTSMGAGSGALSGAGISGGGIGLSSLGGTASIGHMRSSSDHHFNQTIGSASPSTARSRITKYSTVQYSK

Corneodesmosin, Q15517 = molecular target: T2, Corneodesmosin, Q15517
T2 chain: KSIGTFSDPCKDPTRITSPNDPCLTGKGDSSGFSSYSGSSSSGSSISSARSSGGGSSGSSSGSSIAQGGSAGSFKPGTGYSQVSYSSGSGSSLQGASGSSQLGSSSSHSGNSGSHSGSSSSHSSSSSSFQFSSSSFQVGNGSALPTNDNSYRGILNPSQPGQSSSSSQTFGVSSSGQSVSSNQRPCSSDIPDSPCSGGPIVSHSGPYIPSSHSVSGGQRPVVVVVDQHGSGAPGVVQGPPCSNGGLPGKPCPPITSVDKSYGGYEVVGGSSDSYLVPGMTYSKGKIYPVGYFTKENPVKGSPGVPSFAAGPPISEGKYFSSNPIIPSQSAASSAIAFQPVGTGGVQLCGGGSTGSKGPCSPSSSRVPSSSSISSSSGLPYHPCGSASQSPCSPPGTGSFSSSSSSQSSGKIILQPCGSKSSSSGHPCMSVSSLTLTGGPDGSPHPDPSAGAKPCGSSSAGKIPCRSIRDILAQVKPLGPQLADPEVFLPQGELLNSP

Plakoglobin, P14923 = molecular target: T3, Plakoglobin, P14923
T3 chain: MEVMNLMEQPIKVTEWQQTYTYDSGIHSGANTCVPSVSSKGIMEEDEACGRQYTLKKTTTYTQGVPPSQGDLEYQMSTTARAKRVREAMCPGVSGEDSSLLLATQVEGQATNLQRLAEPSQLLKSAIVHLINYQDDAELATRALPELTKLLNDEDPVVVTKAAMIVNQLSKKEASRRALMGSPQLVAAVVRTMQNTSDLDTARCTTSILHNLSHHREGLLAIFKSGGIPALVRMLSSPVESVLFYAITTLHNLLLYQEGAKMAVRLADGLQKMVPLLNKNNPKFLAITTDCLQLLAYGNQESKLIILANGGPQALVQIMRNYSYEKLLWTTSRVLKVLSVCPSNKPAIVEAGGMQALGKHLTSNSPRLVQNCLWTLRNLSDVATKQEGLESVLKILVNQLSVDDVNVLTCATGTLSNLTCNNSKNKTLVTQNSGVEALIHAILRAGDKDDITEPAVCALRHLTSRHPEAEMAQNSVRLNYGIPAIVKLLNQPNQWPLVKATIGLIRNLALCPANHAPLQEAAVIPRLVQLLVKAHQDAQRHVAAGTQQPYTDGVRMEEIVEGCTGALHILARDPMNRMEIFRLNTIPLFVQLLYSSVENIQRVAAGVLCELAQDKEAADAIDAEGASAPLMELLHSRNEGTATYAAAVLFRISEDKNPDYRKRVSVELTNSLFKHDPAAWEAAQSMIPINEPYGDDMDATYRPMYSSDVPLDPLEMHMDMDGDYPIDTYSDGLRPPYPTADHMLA

Desmocollin 1, Q08554 = molecular target: T4, Desmocollin 1, Q08554
T4 chain: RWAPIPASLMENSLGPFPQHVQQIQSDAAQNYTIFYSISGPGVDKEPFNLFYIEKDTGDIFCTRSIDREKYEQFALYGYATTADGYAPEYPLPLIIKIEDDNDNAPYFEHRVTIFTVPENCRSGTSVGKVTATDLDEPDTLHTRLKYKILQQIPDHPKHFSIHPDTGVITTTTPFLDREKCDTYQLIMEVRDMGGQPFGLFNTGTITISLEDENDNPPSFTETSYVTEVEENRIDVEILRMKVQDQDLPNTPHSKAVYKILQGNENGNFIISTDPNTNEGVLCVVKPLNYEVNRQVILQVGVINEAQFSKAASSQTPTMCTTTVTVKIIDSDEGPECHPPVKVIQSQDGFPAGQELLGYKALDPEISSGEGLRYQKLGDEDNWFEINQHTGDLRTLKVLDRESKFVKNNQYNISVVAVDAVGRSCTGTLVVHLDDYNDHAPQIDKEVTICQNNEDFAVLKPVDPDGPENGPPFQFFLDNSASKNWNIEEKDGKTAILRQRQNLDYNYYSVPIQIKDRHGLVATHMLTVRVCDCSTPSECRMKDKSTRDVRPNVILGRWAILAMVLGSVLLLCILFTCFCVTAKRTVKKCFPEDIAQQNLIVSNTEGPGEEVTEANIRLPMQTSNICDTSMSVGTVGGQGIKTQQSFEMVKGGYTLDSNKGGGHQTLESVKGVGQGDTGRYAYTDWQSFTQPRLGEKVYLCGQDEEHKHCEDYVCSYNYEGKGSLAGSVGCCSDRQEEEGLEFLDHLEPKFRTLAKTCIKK

Sequence of Desmoplakin, P15924 (P15924 whole entry): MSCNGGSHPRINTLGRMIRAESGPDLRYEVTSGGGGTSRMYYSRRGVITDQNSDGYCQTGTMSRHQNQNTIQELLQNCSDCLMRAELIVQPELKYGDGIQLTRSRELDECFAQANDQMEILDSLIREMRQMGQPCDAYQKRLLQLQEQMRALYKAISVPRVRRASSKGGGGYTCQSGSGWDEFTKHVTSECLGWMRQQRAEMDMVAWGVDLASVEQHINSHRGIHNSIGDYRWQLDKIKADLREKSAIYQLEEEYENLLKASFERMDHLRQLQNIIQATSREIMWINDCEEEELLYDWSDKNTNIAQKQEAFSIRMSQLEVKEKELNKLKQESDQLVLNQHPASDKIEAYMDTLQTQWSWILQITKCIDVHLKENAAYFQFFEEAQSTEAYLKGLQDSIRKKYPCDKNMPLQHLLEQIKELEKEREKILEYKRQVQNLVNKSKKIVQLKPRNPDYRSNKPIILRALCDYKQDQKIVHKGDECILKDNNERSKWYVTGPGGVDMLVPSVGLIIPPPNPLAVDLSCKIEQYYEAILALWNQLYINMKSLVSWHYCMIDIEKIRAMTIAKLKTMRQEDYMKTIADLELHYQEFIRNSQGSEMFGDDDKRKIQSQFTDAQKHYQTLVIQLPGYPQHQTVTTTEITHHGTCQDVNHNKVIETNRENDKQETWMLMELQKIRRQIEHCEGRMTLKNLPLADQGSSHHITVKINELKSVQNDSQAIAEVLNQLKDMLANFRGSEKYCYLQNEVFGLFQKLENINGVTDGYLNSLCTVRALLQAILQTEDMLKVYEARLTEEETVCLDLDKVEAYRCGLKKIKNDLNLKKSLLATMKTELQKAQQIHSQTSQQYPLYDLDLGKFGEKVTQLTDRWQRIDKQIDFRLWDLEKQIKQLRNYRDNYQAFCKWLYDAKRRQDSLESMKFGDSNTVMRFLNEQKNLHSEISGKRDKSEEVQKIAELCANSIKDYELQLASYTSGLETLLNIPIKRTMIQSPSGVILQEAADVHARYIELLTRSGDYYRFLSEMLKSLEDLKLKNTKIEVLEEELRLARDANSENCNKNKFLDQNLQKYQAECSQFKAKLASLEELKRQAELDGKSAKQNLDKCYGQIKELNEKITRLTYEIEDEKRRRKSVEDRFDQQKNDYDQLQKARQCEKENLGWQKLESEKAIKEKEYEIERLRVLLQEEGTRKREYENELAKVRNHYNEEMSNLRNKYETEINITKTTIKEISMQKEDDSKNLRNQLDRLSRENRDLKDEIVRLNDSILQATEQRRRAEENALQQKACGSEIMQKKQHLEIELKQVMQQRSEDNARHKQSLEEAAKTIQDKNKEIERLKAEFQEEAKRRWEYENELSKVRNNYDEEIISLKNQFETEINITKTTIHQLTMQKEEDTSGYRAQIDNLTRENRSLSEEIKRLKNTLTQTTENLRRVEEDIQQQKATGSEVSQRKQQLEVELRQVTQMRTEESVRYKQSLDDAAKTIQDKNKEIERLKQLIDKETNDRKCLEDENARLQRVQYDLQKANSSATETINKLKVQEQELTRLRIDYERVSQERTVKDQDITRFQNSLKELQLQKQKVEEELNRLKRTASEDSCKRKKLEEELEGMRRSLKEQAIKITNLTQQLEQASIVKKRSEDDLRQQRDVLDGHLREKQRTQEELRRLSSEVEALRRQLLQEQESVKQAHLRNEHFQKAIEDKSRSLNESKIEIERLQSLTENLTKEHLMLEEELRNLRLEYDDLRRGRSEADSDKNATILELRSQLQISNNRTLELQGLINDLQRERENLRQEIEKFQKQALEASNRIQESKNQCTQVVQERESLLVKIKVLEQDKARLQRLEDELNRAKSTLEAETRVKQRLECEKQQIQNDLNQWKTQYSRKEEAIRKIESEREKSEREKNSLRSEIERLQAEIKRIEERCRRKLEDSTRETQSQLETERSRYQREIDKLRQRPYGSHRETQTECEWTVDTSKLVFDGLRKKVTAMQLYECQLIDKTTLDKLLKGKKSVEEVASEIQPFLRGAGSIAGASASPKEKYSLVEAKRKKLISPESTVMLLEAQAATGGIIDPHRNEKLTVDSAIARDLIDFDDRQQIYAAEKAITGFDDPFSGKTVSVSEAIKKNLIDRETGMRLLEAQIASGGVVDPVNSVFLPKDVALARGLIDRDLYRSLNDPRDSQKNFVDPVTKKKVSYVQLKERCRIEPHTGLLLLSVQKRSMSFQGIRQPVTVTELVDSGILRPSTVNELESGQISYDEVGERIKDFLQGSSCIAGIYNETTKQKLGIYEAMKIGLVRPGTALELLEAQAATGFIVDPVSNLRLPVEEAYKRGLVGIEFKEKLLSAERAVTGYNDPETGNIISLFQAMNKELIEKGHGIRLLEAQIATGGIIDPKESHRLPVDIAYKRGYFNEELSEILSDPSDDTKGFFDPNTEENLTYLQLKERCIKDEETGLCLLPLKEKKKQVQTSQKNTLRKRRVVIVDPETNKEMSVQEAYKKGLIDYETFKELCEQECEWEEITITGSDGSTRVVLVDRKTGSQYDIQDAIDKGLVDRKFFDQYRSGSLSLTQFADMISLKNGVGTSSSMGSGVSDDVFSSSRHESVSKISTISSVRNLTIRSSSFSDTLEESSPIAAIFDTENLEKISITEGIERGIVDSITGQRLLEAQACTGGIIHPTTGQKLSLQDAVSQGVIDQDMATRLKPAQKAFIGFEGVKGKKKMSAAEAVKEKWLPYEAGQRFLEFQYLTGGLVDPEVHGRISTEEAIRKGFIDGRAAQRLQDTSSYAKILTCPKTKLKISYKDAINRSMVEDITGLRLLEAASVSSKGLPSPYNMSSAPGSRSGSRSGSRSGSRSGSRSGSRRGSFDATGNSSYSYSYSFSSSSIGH
Sequence of Envoplakin, Q92817 (Q92817 whole entry): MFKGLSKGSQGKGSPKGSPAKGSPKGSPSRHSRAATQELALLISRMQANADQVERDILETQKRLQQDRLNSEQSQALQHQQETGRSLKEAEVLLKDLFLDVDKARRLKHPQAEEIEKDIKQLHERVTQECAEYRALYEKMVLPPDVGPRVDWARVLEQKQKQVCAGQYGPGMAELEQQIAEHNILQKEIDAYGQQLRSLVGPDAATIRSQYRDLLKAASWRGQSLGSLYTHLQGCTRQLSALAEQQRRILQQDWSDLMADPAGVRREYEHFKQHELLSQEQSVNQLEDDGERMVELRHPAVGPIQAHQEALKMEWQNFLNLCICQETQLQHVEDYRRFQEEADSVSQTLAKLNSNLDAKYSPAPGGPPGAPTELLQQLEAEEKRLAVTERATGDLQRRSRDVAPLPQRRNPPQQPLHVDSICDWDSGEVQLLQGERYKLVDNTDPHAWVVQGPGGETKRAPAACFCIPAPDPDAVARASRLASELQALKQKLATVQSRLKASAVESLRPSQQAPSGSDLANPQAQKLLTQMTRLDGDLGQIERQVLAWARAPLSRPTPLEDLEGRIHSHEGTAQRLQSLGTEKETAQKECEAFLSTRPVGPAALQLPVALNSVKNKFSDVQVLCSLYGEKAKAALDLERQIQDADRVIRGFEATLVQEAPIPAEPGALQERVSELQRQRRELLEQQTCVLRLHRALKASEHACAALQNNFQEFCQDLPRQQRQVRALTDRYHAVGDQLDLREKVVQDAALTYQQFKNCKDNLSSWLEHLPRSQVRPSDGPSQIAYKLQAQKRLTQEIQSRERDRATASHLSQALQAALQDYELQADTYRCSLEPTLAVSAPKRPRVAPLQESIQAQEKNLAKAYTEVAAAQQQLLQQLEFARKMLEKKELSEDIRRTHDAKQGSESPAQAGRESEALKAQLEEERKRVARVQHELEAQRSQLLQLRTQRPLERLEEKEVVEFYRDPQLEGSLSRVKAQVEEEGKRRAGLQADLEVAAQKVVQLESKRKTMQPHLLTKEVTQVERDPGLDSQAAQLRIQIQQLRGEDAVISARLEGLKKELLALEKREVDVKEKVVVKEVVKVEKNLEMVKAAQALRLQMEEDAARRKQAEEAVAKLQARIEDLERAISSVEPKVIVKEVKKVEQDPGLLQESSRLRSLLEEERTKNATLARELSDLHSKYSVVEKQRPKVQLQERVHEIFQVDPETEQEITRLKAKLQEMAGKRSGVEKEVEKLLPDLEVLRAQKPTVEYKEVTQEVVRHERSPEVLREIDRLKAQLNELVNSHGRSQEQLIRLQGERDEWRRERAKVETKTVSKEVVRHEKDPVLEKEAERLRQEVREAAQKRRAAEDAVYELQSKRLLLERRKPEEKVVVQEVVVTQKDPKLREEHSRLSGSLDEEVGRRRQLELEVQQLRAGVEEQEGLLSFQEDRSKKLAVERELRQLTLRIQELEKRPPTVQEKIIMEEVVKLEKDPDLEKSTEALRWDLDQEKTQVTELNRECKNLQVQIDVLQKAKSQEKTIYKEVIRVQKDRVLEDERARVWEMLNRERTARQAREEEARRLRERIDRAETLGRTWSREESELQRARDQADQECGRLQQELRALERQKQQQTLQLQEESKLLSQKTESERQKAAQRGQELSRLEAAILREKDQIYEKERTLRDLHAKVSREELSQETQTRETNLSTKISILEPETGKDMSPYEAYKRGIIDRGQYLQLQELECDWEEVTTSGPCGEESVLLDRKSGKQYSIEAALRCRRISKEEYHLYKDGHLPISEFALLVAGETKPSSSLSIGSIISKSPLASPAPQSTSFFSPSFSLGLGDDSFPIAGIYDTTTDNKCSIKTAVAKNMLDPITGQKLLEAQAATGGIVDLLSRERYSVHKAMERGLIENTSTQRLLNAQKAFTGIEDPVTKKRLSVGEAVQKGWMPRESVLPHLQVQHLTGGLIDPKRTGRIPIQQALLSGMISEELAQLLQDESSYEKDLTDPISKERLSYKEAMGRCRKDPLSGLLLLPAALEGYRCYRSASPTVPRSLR

B1: recombinant Stratum Corneum Chymotryptic Enzyme (SCCE), active form obtained from recombinant ProSCCE with agarose-bound trypsin (protein)
chain: EEAQGDKIIDGAPCARGSHPWQVALLSGNQLHCGGVLVNERWVLTAAHCKMNEYTVHLGSDTLGDRRAQRIKASKSFRHPGYSTQTHVNDLMLVKLNSQARLSSMVKKVRLPSRCEPPGTTCTVSGWGTTTSPDVTFPSDLMCVDVKLISPQDCTKVYKDLLENSMLCAGIPDSKKNACNGDSGGPLVCRGTLQGLVSWGTFPCGQPNDPGVYTQVCKFTKWINDTMKKHR
- proteolysis (immunoblot of human epidermis extract incubated with active SCCE) (Desmoglein, Q02413): Desmoglein is found to be proteolysed by SCCE.
- proteolysis (immunoblot of human epidermis extract incubated with active SCCE) (Corneodesmosin, Q15517): Corneodesmosin is found to be proteolysed by recombinant SCCE.
- proteolysis (immunoblot of human epidermis extract incubated with active SCCE) (Envoplakin, Q92817): Envoplakin is found to be proteolysed by SCCE.
- proteolysis (immunoblot of human epidermis extract incubated with active SCCE) (Plakoglobin, P14923): Plakoglobin is found to be proteolysed by recombinant SCCE.
- proteolysis (immunoblot of human epidermis extract incubated with active SCCE) (Desmocollin 1, Q08554): Desmocollin is found to be proteolysed by SCCE.
- proteolysis (immunoblot of human epidermis extract incubated with active SCCE) (Desmoplakin, P15924): Desmoplakin is found to be proteolysed by SCCE.
